Source: patent US20100260765A1 (AstraZeneca / MedImmune, published 2010)
Where a chain is given by its changes, count along the chain named. One block for each binder: values may come before it.

How the values were obtained:
Experiment in all cases: cell-based or functional assay
KDR [1] = molecular target: T1, KDR (human, UniProt P35968 20-1356)
KDR [2] = molecular target: T1, KDR; remark: listed apart in the source
KDR [3] = molecular target: T1, KDR; remark: listed apart in the source
KDR [4] = molecular target: T1, KDR; remark: listed apart in the source
KDR [5] = molecular target: T1, KDR; remark: listed apart in the source

T1 sequence (P35968 20-1356): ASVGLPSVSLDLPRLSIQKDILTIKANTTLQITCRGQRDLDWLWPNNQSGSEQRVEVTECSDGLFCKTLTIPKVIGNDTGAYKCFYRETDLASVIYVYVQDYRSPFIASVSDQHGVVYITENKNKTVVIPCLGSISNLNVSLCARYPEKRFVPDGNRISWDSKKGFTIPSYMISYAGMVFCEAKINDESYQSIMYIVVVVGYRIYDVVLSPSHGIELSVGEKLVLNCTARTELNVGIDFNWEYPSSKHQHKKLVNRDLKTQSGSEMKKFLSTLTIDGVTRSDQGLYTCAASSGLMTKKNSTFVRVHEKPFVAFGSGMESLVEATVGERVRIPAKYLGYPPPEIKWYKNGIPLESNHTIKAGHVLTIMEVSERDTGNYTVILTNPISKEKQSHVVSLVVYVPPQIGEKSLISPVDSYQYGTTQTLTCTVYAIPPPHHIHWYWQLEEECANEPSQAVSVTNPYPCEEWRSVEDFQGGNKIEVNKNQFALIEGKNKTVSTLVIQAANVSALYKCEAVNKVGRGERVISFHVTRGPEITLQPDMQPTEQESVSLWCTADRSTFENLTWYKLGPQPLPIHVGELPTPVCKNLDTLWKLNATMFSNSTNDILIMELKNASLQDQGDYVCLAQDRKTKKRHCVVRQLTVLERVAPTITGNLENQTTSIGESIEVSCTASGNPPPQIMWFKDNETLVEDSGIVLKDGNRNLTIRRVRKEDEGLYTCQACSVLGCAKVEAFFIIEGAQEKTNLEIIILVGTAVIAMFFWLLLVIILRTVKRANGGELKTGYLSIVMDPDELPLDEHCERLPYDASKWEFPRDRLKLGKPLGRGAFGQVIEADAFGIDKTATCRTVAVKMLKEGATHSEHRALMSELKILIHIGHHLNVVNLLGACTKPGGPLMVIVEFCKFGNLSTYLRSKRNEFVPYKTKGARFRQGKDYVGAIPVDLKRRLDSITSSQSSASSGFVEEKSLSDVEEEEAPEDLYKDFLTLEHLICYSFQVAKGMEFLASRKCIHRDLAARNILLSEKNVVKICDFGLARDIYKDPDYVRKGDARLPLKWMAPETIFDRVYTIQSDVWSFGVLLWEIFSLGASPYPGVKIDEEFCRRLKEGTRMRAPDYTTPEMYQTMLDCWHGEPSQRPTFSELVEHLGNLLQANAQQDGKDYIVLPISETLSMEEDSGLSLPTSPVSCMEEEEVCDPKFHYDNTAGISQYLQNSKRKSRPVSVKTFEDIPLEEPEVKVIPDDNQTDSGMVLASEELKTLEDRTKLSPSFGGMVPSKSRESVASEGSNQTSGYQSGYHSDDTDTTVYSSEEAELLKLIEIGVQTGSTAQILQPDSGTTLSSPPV

B1: 32B2 (antibody, V domains shown)
VH: EVQLLESGGGLVQPGGSLRLSCAASGFTFSNYAMSWVRQAPGKGLDWVSAISGRGGSTYYADSVKGRFTISRDNSKNTLFLLMNSLRAEDTAVYYCAKASGDDWGQGTLVTVSS
VL: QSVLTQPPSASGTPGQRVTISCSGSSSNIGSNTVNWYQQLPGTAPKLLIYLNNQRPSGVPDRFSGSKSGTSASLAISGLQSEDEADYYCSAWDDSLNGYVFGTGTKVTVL
Activity at 133 nM (% Inhibition), 24-hour Pre-incubation at 37° C., Average (KDR [1]): 49% | Activity at 133 nM (% Inhibition), 24-hour Pre-incubation at 37° C., N = 1 (KDR [1]): 38% | Activity at 133 nM (% Inhibition), 24-hour Pre-incubation at 37° C., N = 2 (KDR [1]): 61% | Activity at 133 nM (% Inhibition), 1-hour Pre-incubation at 4° C., Average (KDR [2]): 29% | Activity at 133 nM (% Inhibition), 1-hour Pre-incubation at 4° C., N = 1 (KDR [2]): 25% | Activity at 133 nM (% Inhibition), 1-hour Pre-incubation at 4° C., N = 2 (KDR [2]): 33% | Activity at 133 nM Antibody Concentration (% Survival Inhibition), Average (KDR [3]): -21% | Activity at 133 nM Antibody Concentration (% Survival Inhibition), N = 1 (KDR [3]): -13% | Activity at 133 nM Antibody Concentration (% Survival Inhibition), N = 2 (KDR [3]): -29% | % of Max VEGF KDR pTyr Activity (at 133 nM antibody concentration), Average (KDR [4]): 11% | % of Max VEGF KDR pTyr Activity (at 133 nM antibody concentration), N = 1 (KDR [4]): 12% | % of Max VEGF KDR pTyr Activity (at 133 nM antibody concentration), N = 2 (KDR [4]): 10% | % Inhibition of VEGF165-mediated 6-keto Prostaglandin F1α release at 133 nM Antibody Concentration, Average (KDR [5]): 6% | % Inhibition of VEGF165-mediated 6-keto Prostaglandin F1α release at 133 nM Antibody Concentration, N = 1 (KDR [5]): 3% | % Inhibition of VEGF165-mediated 6-keto Prostaglandin F1α release at 133 nM Antibody Concentration, N = 2 (KDR [5]): 9%

B3: 22B8 (antibody, V domains shown)
VH: QLQLQESGPGLVKPSETLSLTCTVSGGSISSRYYYWGWVRQPPGKGLEWIGTIYYSGHTYYNPSLKTRVTISVDTSKNQFSLKLISVTAADTAVYYCATQQLVLYYFDFWGQGTLVTVSS
VL: EIVLTQSPGTLSLSPGERAALSCRASQSISSSYLAWYQQRPGQAPRLLIYGASSRATGIPDRFNGSGSGTDFTLTISRLEPEDFAVYYCQQFGSSITFGQGTRLEIK
Activity at 133 nM (% Inhibition), 24-hour Pre-incubation at 37° C., Average (KDR [1]): 99% | Activity at 133 nM (% Inhibition), 24-hour Pre-incubation at 37° C., N = 1 (KDR [1]): 82% | Activity at 133 nM (% Inhibition), 24-hour Pre-incubation at 37° C., N = 2 (KDR [1]): 115% | Activity at 133 nM (% Inhibition), 1-hour Pre-incubation at 4° C., Average (KDR [2]): 76% | Activity at 133 nM (% Inhibition), 1-hour Pre-incubation at 4° C., N = 1 (KDR [2]): 75% | Activity at 133 nM (% Inhibition), 1-hour Pre-incubation at 4° C., N = 2 (KDR [2]): 76% | Activity at 133 nM Antibody Concentration (% Survival Inhibition), Average (KDR [3]): 88% | Activity at 133 nM Antibody Concentration (% Survival Inhibition), N = 1 (KDR [3]): 88% | Activity at 133 nM Antibody Concentration (% Survival Inhibition), N = 2 (KDR [3]): 87% | % of Max VEGF KDR pTyr Activity (at 133 nM antibody concentration), Average (KDR [4]): 7% | % of Max VEGF KDR pTyr Activity (at 133 nM antibody concentration), N = 1 (KDR [4]): 9% | % of Max VEGF KDR pTyr Activity (at 133 nM antibody concentration), N = 2 (KDR [4]): 5% | % Inhibition of VEGF165-mediated 6-keto Prostaglandin F1α release at 133 nM Antibody Concentration, Average (KDR [5]): 72% | % Inhibition of VEGF165-mediated 6-keto Prostaglandin F1α release at 133 nM Antibody Concentration, N = 1 (KDR [5]): 67% | % Inhibition of VEGF165-mediated 6-keto Prostaglandin F1α release at 133 nM Antibody Concentration, N = 2 (KDR [5]): 76%

Now from value to binder, other results behind:

Activity at 133 nM (% Inhibition), 24-hour Pre-incubation at 37° C., Average (KDR [1]): 62% | Activity at 133 nM (% Inhibition), 24-hour Pre-incubation at 37° C., N = 1 (KDR [1]): 48% | Activity at 133 nM (% Inhibition), 24-hour Pre-incubation at 37° C., N = 2 (KDR [1]): 77% | Activity at 133 nM (% Inhibition), 1-hour Pre-incubation at 4° C., Average (KDR [2]): 26% | Activity at 133 nM (% Inhibition), 1-hour Pre-incubation at 4° C., N = 1 (KDR [2]): 31% | Activity at 133 nM (% Inhibition), 1-hour Pre-incubation at 4° C., N = 2 (KDR [2]): 21% | % of Max VEGF KDR pTyr Activity (at 133 nM antibody concentration), Average (KDR [4]): 12% | % of Max VEGF KDR pTyr Activity (at 133 nM antibody concentration), N = 1 (KDR [4]): 12% | % of Max VEGF KDR pTyr Activity (at 133 nM antibody concentration), N = 2 (KDR [4]): 13% | % Inhibition of VEGF165-mediated 6-keto Prostaglandin F1α release at 133 nM Antibody Concentration, Average (KDR [5]): 10% | % Inhibition of VEGF165-mediated 6-keto Prostaglandin F1α release at 133 nM Antibody Concentration, N = 1 (KDR [5]): 10%
B2: 30H10 (antibody, V domains shown)
VH: B1 VH with D46E, R54S, S57I, L82Q, D103N, T111S
VL: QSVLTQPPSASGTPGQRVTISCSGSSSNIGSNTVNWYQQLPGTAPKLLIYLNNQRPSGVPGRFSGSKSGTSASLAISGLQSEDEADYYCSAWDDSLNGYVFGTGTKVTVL
Activity at 133 nM Antibody Concentration (% Survival Inhibition), Average (KDR [3]): -115% | Activity at 133 nM Antibody Concentration (% Survival Inhibition), N = 1 (KDR [3]): -84% | Activity at 133 nM Antibody Concentration (% Survival Inhibition), N = 2 (KDR [3]): -147%

Activity at 133 nM (% Inhibition), 24-hour Pre-incubation at 37° C., Average (KDR [1]): 19% | Activity at 133 nM (% Inhibition), 24-hour Pre-incubation at 37° C., N = 1 (KDR [1]): 1% | Activity at 133 nM (% Inhibition), 24-hour Pre-incubation at 37° C., N = 2 (KDR [1]): 36% | Activity at 133 nM (% Inhibition), 1-hour Pre-incubation at 4° C., Average (KDR [2]): 50% | Activity at 133 nM (% Inhibition), 1-hour Pre-incubation at 4° C., N = 1 (KDR [2]): 45% | Activity at 133 nM (% Inhibition), 1-hour Pre-incubation at 4° C., N = 2 (KDR [2]): 55% | % of Max VEGF KDR pTyr Activity (at 133 nM antibody concentration), Average (KDR [4]): 16% | % of Max VEGF KDR pTyr Activity (at 133 nM antibody concentration), N = 1 (KDR [4]): 20% | % of Max VEGF KDR pTyr Activity (at 133 nM antibody concentration), N = 2 (KDR [4]): 11% | % Inhibition of VEGF165-mediated 6-keto Prostaglandin F1α release at 133 nM Antibody Concentration, Average (KDR [5]): 18% | % Inhibition of VEGF165-mediated 6-keto Prostaglandin F1α release at 133 nM Antibody Concentration, N = 1 (KDR [5]): 14% | % Inhibition of VEGF165-mediated 6-keto Prostaglandin F1α release at 133 nM Antibody Concentration, N = 2 (KDR [5]): 22%
B4: 29H3 (antibody, V domains shown)
VH: QVQLVQSGAEVKKPGASVKVSCKASGYTFTSYDINWVRQATGQGLEWMGWMNPNSGKTGYAQKFQGRVTMTRNTSINTAYMELSSLRSEDTAVYYCARGGYSNLGWFDPWGQGTLVTVSS
VL: DIQMTQSPSSVSASVGDRVTITCRASQGISSWLVWYHQKPGKAPKLLIYGASSLQSGVPSRFSGSGSGTDFTLTISSLQPEDFATYYCQQANNFPFTFGPGTKVDIK
Activity at 133 nM Antibody Concentration (% Survival Inhibition), Average (KDR [3]): -70% | Activity at 133 nM Antibody Concentration (% Survival Inhibition), N = 1 (KDR [3]): -5% | Activity at 133 nM Antibody Concentration (% Survival Inhibition), N = 2 (KDR [3]): -136%
